The values below come from patent US20070110757A1.

B1: A17d4(1) monoclonal antibody (antibody, V domains shown)
VH: QVTLRESGPALVKPTQTLTLTCTFSGFSLSTAGMSVGWIRQPPGKALEWLADIWWDGKKSYNPSLKDRLTISKDTSKNQVVLKVTNMDPADTATYYCARDMIFNFYFDVWGQGTTVTVSS
VL: DIQMTQSPSTLSASVGDRVTITCLPSSRVGYMHWYQQKPGKAPKLLIYDTMYQSSGVPSRFSGSGSGTEFTLTISSLQPDDFATYYCFQGSGYPFTFGGGTKVEIK
B2: P12f2 monoclonal antibody (antibody, V domains shown)
VH: B1 VH with A32P, G57D, S60H
VL: B1 VL with L24S, P25L, M51F, Q53L
B3: P12f4 monoclonal antibody (antibody, V domains shown)
VH: B1 VH with A32P, S60H
VL: B1 VL with L24S, P25L, M51R, Y52G, Q53L, S54P
B4: A4B4 Fab fragment (Fab, V domains shown)
VH: B1 VH with G57D, S60H
VL: B1 VL with L24S, P25A, M51F, Y52F, Q53L, S54D
B5: A1h5 Fab fragment (Fab, V domains shown)
VH: B1 VH with S60H, F105W
VL: B1 VL with L24S, P25L, R28S, M51F, Y52F, Q53H, S54R
B6: A13c4 monoclonal antibody (antibody, V domains shown)
VH: B1 VH
VL: B1 VL with L24S, P25L
B7: P11d4 monoclonal antibody (antibody, V domains shown)
VH: B1 VH with A32P, S60H, F105W
VL: B1 VL with L24S, Y52R, Q53L, S54A
B8: A8c7 monoclonal antibody (antibody, V domains shown)
VH: B1 VH with G57D, F105W
VL: B1 VL with L24S, M51R
B9: A13c4 Fab fragment (Fab, V domains shown)
VH: B1 VH
VL: B1 VL with L24S, P25L
B10: A13a11 Fab fragment (Fab, V domains shown)
VH: B1 VH with G57D, S60H, F105W
VL: B1 VL with L24S, M51Y, Y52R, Q53H
B11: A1e9 monoclonal antibody (antibody, V domains shown)
VH: B1 VH with S60H, F105W
VL: B1 VL with L24S, P25L, M51F, Y52K, Q53L
B12: A8c7 Fab fragment (Fab, V domains shown)
VH: B1 VH with G57D, F105W
VL: B1 VL with L24S, M51R
B13: A4B4 monoclonal antibody (antibody, V domains shown)
VH: B1 VH with G57D, S60H
VL: B1 VL with L24S, P25A, M51F, Y52F, Q53L, S54D
B14: A12a6 Fab fragment (Fab, V domains shown)
VH: B1 VH with S60D
VL: B1 VL with L24S, P25A, M51F, Y52K, Q53L
B15: P11d4 Fab fragment (Fab, V domains shown)
VH: B1 VH with A32P, S60H, F105W
VL: B1 VL with L24S, Y52R, Q53L, S54A
B16: P12f4 Fab fragment (Fab, V domains shown)
VH: B1 VH with A32P, S60H
VL: B1 VL with L24S, P25L, M51R, Y52G, Q53L, S54P
B17: A1e9 Fab fragment (Fab, V domains shown)
VH: B1 VH with S60H, F105W
VL: B1 VL with L24S, P25L, M51F, Y52K, Q53L
B18: A17d4(1) Fab fragment (Fab, V domains shown)
VH: B1 VH
VL: B1 VL
B19: P12f2 Fab fragment (Fab, V domains shown)
VH: B1 VH with A32P, G57D, S60H
VL: B1 VL with L24S, P25L, M51F, Q53L
B20: A12a6 monoclonal antibody (antibody, V domains shown)
VH: B1 VH with S60D
VL: B1 VL with L24S, P25A, M51F, Y52K, Q53L

Numbering of substitutions follows the chain as printed.

For the assay, the target named is RSV F protein on respiratory syncytial virus (RSV-Long strain) (respiratory syncytial virus (Long strain)) (UniProt P12568). In words: cell-based or functional assay.
Sequence of RSV F protein on respiratory syncytial virus (RSV-Long strain) (respiratory syncytial virus (Long strain)) (P12568 26-574): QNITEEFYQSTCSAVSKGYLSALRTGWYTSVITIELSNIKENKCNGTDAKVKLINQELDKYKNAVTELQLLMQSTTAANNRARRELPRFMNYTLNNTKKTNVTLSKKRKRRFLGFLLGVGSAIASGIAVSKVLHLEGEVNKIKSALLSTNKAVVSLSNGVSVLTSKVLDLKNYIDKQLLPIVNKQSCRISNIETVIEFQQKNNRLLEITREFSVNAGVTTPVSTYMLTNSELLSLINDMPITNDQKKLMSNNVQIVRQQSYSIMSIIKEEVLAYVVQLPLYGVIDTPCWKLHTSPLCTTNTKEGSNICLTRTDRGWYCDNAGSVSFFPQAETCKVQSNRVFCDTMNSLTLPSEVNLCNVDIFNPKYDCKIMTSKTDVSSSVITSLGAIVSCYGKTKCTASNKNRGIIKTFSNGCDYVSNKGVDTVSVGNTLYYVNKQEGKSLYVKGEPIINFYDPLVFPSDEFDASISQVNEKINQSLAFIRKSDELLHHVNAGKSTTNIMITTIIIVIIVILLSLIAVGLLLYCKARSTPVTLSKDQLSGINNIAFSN
B1 had a Fold Difference (Control IC50) of 15 fold; a Fold Difference (Curve IC50) of 13 fold; a Mean IC50 (Control), RSV microneutralization of 0.0354 µg/mL; a Mean IC50 (Curve), RSV microneutralization of 0.0342 µg/mL.

As for B2, the Fold Difference (Control IC50) stood at 24 fold; the Fold Difference (Curve IC50) is 20 fold; the Mean IC50 (Control), RSV microneutralization worked out at 0.0223 µg/mL; the Mean IC50 (Curve), RSV microneutralization worked out at 0.0231 µg/mL.

With B3, the Fold Difference (Control IC50) is 23 fold; the Fold Difference (Curve IC50) amounted to 19 fold; the Mean IC50 (Control), RSV microneutralization amounted to 0.0235 µg/mL; the Mean IC50 (Curve), RSV microneutralization is 0.0242 µg/mL.

Molecule B4 yielded a Fold Difference (Control IC50) of 13 fold; a Fold Difference (Curve IC50) of 11 fold; a Mean IC50 (Control), RSV microneutralization of 0.0411 µg/mL; a Mean IC50 (Curve), RSV microneutralization of 0.0414 µg/mL.

In the case of B5, the Fold Difference (Control IC50) was 3 fold; the Fold Difference (Curve IC50) was 2 fold; the Mean IC50 (Control), RSV microneutralization worked out at 0.176 µg/mL; the Mean IC50 (Curve), RSV microneutralization came out at 0.194 µg/mL.

B6 yielded a Fold Difference (Control IC50) of 14 fold; a Fold Difference (Curve IC50) of 12 fold; a Mean IC50 (Control), RSV microneutralization of 0.0375 µg/mL; a Mean IC50 (Curve), RSV microneutralization of 0.0376 µg/mL.

Turning to B7, the Fold Difference (Control IC50) came to 19 fold; the Fold Difference (Curve IC50) was found to be 21 fold; the Mean IC50 (Control), RSV microneutralization was 0.0289 µg/mL; the Mean IC50 (Curve), RSV microneutralization was 0.0217 µg/mL.

B8 gave a Fold Difference (Control IC50) of 14 fold; a Fold Difference (Curve IC50) of 13 fold; a Mean IC50 (Control), RSV microneutralization of 0.0383 µg/mL; a Mean IC50 (Curve), RSV microneutralization of 0.0337 µg/mL.

Consider B9, for which the Fold Difference (Control IC50) turned out to be 21 fold; the Fold Difference (Curve IC50) was 17 fold; the Mean IC50 (Control), RSV microneutralization worked out at 0.0258 µg/mL; the Mean IC50 (Curve), RSV microneutralization came out at 0.0264 µg/mL.

B10: the Fold Difference (Control IC50) turned out to be 5 fold; the Fold Difference (Curve IC50) was determined as 4 fold; the Mean IC50 (Control), RSV microneutralization was determined as 0.102 µg/mL; the Mean IC50 (Curve), RSV microneutralization came to 0.12 µg/mL.

Molecule B11 came in with a Fold Difference (Control IC50) of 8 fold; a Fold Difference (Curve IC50) of 7 fold; a Mean IC50 (Control), RSV microneutralization of 0.0645 µg/mL; a Mean IC50 (Curve), RSV microneutralization of 0.0625 µg/mL.

B12 registered a Fold Difference (Control IC50) of 34 fold; a Fold Difference (Curve IC50) of 3 fold; a Mean IC50 (Control), RSV microneutralization of 0.157 µg/mL; a Mean IC50 (Curve), RSV microneutralization of 0.177 µg/mL.

B13 had a Fold Difference (Control IC50) of 35 fold; a Fold Difference (Curve IC50) of 27 fold; a Mean IC50 (Control), RSV microneutralization of 0.0154 µg/mL; a Mean IC50 (Curve), RSV microneutralization of 0.0171 µg/mL.

In the case of B14, the Fold Difference (Control IC50) turned out to be 17 fold; the Fold Difference (Curve IC50) stood at 16 fold; the Mean IC50 (Control), RSV microneutralization turned out to be 0.031 µg/mL; the Mean IC50 (Curve), RSV microneutralization turned out to be 0.0287 µg/mL.

As for B15, the Mean IC50 (Control), RSV microneutralization was more than 1 µg/mL and the Mean IC50 (Curve), RSV microneutralization is more than 1 µg/mL.

B16 came in with a Fold Difference (Control IC50) of 15 fold; a Fold Difference (Curve IC50) of 10 fold; a Mean IC50 (Control), RSV microneutralization of 0.0351 µg/mL; a Mean IC50 (Curve), RSV microneutralization of 0.0464 µg/mL.

Regarding B17, the Fold Difference (Control IC50) stood at 4 fold; the Fold Difference (Curve IC50) worked out at 3 fold; the Mean IC50 (Control), RSV microneutralization was determined as 0.125 µg/mL; the Mean IC50 (Curve), RSV microneutralization came to 0.157 µg/mL.

On to B18, for which the Fold Difference (Control IC50) came out at 31 fold; the Fold Difference (Curve IC50) amounted to 25 fold; the Mean IC50 (Control), RSV microneutralization amounted to 0.0171 µg/mL; the Mean IC50 (Curve), RSV microneutralization was 0.0179 µg/mL.

For the molecule B19, the Fold Difference (Control IC50) was determined as 16 fold; the Fold Difference (Curve IC50) came to 11 fold; the Mean IC50 (Control), RSV microneutralization amounted to 0.0326 µg/mL; the Mean IC50 (Curve), RSV microneutralization came to 0.0407 µg/mL.

The molecule B20 yielded a Fold Difference (Control IC50) of 15 fold; a Fold Difference (Curve IC50) of 13 fold; a Mean IC50 (Control), RSV microneutralization of 0.0354 µg/mL; a Mean IC50 (Curve), RSV microneutralization of 0.0357 µg/mL.
